# Experimental data reported in PMC10388305, “Synthesis and Evaluation of a Monomethyl Auristatin E—Integrin αvβ6 Binding Peptide–Drug Conjugate for Tumor Targeted Drug Delivery” (Journal of Medicinal Chemistry, 2023).
# Like-named read-outs stand apart in the source and are kept apart here.
# Key:
# Assay type in all cases: in vivo, mice
# [1] = Biodistribution, BxPC-3 pancreatic xenograft tumor mouse model; conditions: female, athymic nude, iv, total radioactivity, γ-counter, mean ± SD; for tissue uptake at 4 h / tissue uptake at 24 h / tissue uptake at 48 h: i.v.
# Method: All animal procedures conformed to the Animal Welfare Act and were approved by the University of California Davis Institutional Animal Care and Use Committee. All mice used for in vivo work were female athymic nude mice (6–8 weeks old) purchased from Charles River Laboratories (Wilmington, MA). For PET imaging and biodistribution studies, female athymic nude mice (6–8 weeks old) were injected subcutaneously with 3 × 10^6 DX3puro and 3 × 10^6 DX3puroβ6 cells in serum free DMEM on the right and left flank, respectively, or with 5 × 10^6 BxPC-3 cells in serum free RPMI 1640/Matrigel (1/1 v/v). Studies commenced once tumors reached a maximum diameter of ∼0.5 cm, approximately 3 weeks after inoculation. Food and water were available ad libitum. [^64Cu]PDC-1 was formulated in isotonic 0.9% saline to pH = 7.2 and administered intravenously (i.v.) via a catheter into the tail vein.
# (§1) Aliquots of the formulated [^64Cu]PDC-1 in isotonic 0.9% saline (4.81–5.74 MBq, 1.7–2.1 μg, 0.26–0.31 nmol, 100 μL, pH 7.2) were injected i.v. as described above. Following the conscious uptake period, the mice were anesthetized (5% isoflurane), euthanized, and dissected (n ≥ 3/model/time point [4, 24, and 48 h]; the 48 h time point also included the imaging animals sacrificed after the PET scans). Tissues were collected, washed, weighed, and radioactivity measured in a γ-counter. Calibrated, decay-corrected radioactivity was expressed as the percentage of injected dose per gram of tissue (% ID/g). Data are reported as mean ± SD. […] For in vivo blocking studies, DOTA-2 (50 mg/kg, 205 nmol, 1.4 mg in 100 μL 0.9% saline) was injected i.v. into two animals/tumor model 10 min prior to [^64Cu]PDC-1. The animals were sacrificed after 4 h, tissues collected, washed, weighed, and radioactivity measured in a γ-counter.
# Biodistribution data of [64Cu]PDC-1 in BxPC-3 tumor model.
# Table S4. Biodistribution of [ 64Cu]PDC-1 in mice bearing a BxPC-3 xenograft tumor. Tissue uptake is
# expressed as the mean of the percentage of injected dose per gram of tissue ± standard deviation (n = 4/
# time point; n = 6 at 48 h); an = 3, bn = 5.
# [2] = test system: DX3puroβ6/DX3puro and BxPC-3 xenograft tumor models; assay: Biodistribution, both tumor models; conditions: DOTA-2 (205 nmol) 10 min prior; 4 h p.i.; both models
# Method: as §1
# [3] = Biodistribution, both tumor models; conditions: female, athymic nude, mouse, iv, total radioactivity; for tissue uptake: all time points
# Method: as §1
compound,measurement,setting,value
"CC[C@H](C)[C@@H]([C@@H](CC(=O)N1CCC[C@H]1[C@H](OC)[C@@H](C)C(=O)N[C@H](C)[C@@H](O)c1ccccc1)OC)N(C)C(=O)[C@@H](NC(=O)[C@H](C(C)C)N(C)C(=O)OCc1ccc(NC(=O)[C@H](CCCNC(N)=O)NC(=O)[C@@H](NC(=O)CCOCCOCCNC(=O)CCN2C(=O)CC(SC[C@H](NC(=O)CN3CCN(CC(=O)O)CCN(CC(=O)O)CCN(CC(=O)O)CC3)C(=O)NCCOCCOCCOCCOCCOCCOCCOCCOCCOCCOCCOCCOCCOCCOCCOCCOCCOCCOCCOCCOCCOCCOCCOCCOCCOCCOCCOCCOCCC(=O)N[C@@H](CC(N)=O)C(=O)N[C@@H](C)C(=O)N[C@H](C(=O)N3CCC[C@H]3C(=O)N[C@@H](CC(N)=O)C(=O)N[C@@H](CC(C)C)C(=O)N[C@@H](CCCNC(=N)N)C(=O)NCC(=O)N[C@@H](CC(=O)O)C(=O)N[C@@H](CC(C)C)C(=O)N[C@@H](CCC(N)=O)C(=O)N[C@H](C(=O)N[C@@H](CC(C)C)C(=O)N[C@@H](C)C(=O)N[C@@H](CCC(N)=O)C(=O)N[C@@H](CCCNC(=N)N)C(=O)N[C@H](C(=O)N[C@@H](C)C(=O)N[C@@H](CCCNC(=N)N)C(=O)N[C@H](C(=O)NCCOCCOCCOCCOCCOCCOCCOCCOCCOCCOCCOCCOCCOCCOCCOCCOCCOCCOCCOCCOCCOCCOCCOCCOCCOCCOCCOCCOCCC(N)=O)[C@@H](C)O)C(C)C)C(C)C)C(C)C)C2=O)C(C)C)cc1)C(C)C (some centres unmarked) [[^64Cu]PDC-1, metal not drawn]",tissue uptake at 4 h,"[1]; BxPC-3 (αvβ6 +) tumor, 4 h p.i., n = 3, read-out: BxPC-3 (αvβ6 +) tumor uptake",4.61 ± 1.44 %ID/g
same,tissue uptake at 24 h,"[1]; BxPC-3 (αvβ6 +) tumor, 24 h p.i., n = 4, read-out: BxPC-3 (αvβ6 +) tumor uptake",3.73 ± 0.44 %ID/g
same,tissue uptake at 48 h,"[1]; BxPC-3 (αvβ6 +) tumor, 48 h p.i., n = 6, read-out: BxPC-3 (αvβ6 +) tumor uptake",2.93 ± 0.8 %ID/g
same,tissue uptake at 4 h,"[1]; bladder, 4 h p.i., n = 4, read-out: Bladder uptake",2.06 ± 0.2 %ID/g
same,tissue uptake at 24 h,"[1]; bladder, 24 h p.i., n = 4, read-out: Bladder uptake",1.84 ± 0.45 %ID/g
same,tissue uptake at 48 h,"[1]; bladder, 48 h p.i., n = 6, read-out: Bladder uptake",1.28 ± 0.46 %ID/g
same,tissue uptake at 4 h,"[1]; blood, 4 h p.i., n = 4, read-out: Blood uptake",0.13 ± 0.02 %ID/g
same,tissue uptake at 24 h,"[1]; blood, 24 h p.i., n = 4, read-out: Blood uptake",0.31 ± 0.04 %ID/g
same,tissue uptake at 48 h,"[1]; blood, 48 h p.i., n = 6, read-out: Blood uptake",0.28 ± 0.04 %ID/g
same,tissue uptake at 4 h,"[1]; bone, 4 h p.i., n = 4, read-out: Bone uptake",0.36 ± 0.1 %ID/g
same,tissue uptake at 24 h,"[1]; bone, 24 h p.i., n = 4, read-out: Bone uptake",0.43 ± 0.03 %ID/g
same,tissue uptake at 48 h,"[1]; bone, 48 h p.i., n = 6, read-out: Bone uptake",0.23 ± 0.11 %ID/g
same,tissue uptake at 4 h,"[1]; brain, 4 h p.i., n = 4, read-out: Brain uptake",0.04 %ID/g
same,tissue uptake at 24 h,"[1]; brain, 24 h p.i., n = 4, read-out: Brain uptake",0.08 ± 0.01 %ID/g
same,tissue uptake at 48 h,"[1]; brain, 48 h p.i., n = 6, read-out: Brain uptake",0.08 ± 0.03 %ID/g
same,tissue uptake at 4 h,"[1]; gall bladder, 4 h p.i., n = 4, read-out: Gall bladder uptake",3.99 ± 1.49 %ID/g
same,tissue uptake at 24 h,"[1]; gall bladder, 24 h p.i., n = 4, read-out: Gall bladder uptake",2.88 ± 1.31 %ID/g
same,tissue uptake at 48 h,"[1]; gall bladder, 48 h p.i., n = 6, read-out: Gall bladder uptake",1.46 ± 1.09 %ID/g
same,tissue uptake at 4 h,"[1]; heart, 4 h p.i., n = 4, read-out: Heart uptake",0.79 ± 0.11 %ID/g
same,tissue uptake at 24 h,"[1]; heart, 24 h p.i., n = 4, read-out: Heart uptake",0.89 ± 0.13 %ID/g
same,tissue uptake at 48 h,"[1]; heart, 48 h p.i., n = 6, read-out: Heart uptake",0.79 ± 0.07 %ID/g
same,tissue uptake at 4 h,"[1]; kidney, 4 h p.i., n = 4, read-out: Kidney uptake",50.4 ± 3.08 %ID/g
same,tissue uptake at 24 h,"[1]; kidney, 24 h p.i., n = 4, read-out: Kidney uptake",41.6 ± 11.8 %ID/g
same,tissue uptake at 48 h,"[1]; kidney, 48 h p.i., n = 6, read-out: Kidney uptake",21.5 ± 7.01 %ID/g
same,tissue uptake at 4 h,"[1]; large intestines, 4 h p.i., n = 4, read-out: Lg. Intestines uptake",5.49 ± 0.47 %ID/g
same,tissue uptake at 24 h,"[1]; large intestines, 24 h p.i., n = 4, read-out: Lg. Intestines uptake",5.21 ± 0.82 %ID/g
same,tissue uptake at 48 h,"[1]; large intestines, 48 h p.i., n = 6, read-out: Lg. Intestines uptake",2.78 ± 1.08 %ID/g
same,tissue uptake at 4 h,"[1]; liver, 4 h p.i., n = 4, read-out: Liver uptake",1.51 ± 0.29 %ID/g
same,tissue uptake at 24 h,"[1]; liver, 24 h p.i., n = 4, read-out: Liver uptake",1.95 ± 0.33 %ID/g
same,tissue uptake at 48 h,"[1]; liver, 48 h p.i., n = 6, read-out: Liver uptake",1.8 ± 0.3 %ID/g
same,tissue uptake at 4 h,"[1]; lung, 4 h p.i., n = 4, read-out: Lung uptake",2.44 ± 0.3 %ID/g
same,tissue uptake at 24 h,"[1]; lung, 24 h p.i., n = 4, read-out: Lung uptake",2.3 ± 0.04 %ID/g
same,tissue uptake at 48 h,"[1]; lung, 48 h p.i., n = 6, read-out: Lung uptake",1.67 ± 0.42 %ID/g
same,tissue uptake at 4 h,"[1]; muscle, 4 h p.i., n = 4, read-out: Muscle uptake",0.8 ± 0.09 %ID/g
same,tissue uptake at 24 h,"[1]; muscle, 24 h p.i., n = 4, read-out: Muscle uptake",0.68 ± 0.06 %ID/g
same,tissue uptake at 48 h,"[1]; muscle, 48 h p.i., n = 6, read-out: Muscle uptake",0.44 ± 0.09 %ID/g
same,tissue uptake at 4 h,"[1]; pancreas, 4 h p.i., n = 4, read-out: Pancreas uptake",0.32 ± 0.09 %ID/g
same,tissue uptake at 24 h,"[1]; pancreas, 24 h p.i., n = 4, read-out: Pancreas uptake",0.46 ± 0.04 %ID/g
same,tissue uptake at 48 h,"[1]; pancreas, 48 h p.i., n = 6, read-out: Pancreas uptake",0.47 ± 0.06 %ID/g
same,tissue uptake at 4 h,"[1]; skin, 4 h p.i., n = 4, read-out: Skin uptake",1.92 ± 0.5 %ID/g
same,tissue uptake at 24 h,"[1]; skin, 24 h p.i., n = 4, read-out: Skin uptake",1.41 ± 0.25 %ID/g
same,tissue uptake at 48 h,"[1]; skin, 48 h p.i., n = 6, read-out: Skin uptake",0.79 ± 0.19 %ID/g
same,tissue uptake at 4 h,"[1]; small intestines, 4 h p.i., n = 4, read-out: Sm. Intestines uptake",3.98 ± 0.54 %ID/g
same,tissue uptake at 24 h,"[1]; small intestines, 24 h p.i., n = 4, read-out: Sm. Intestines uptake",2.85 ± 0.31 %ID/g
same,tissue uptake at 48 h,"[1]; small intestines, 48 h p.i., n = 6, read-out: Sm. Intestines uptake",1.5 ± 0.23 %ID/g
same,tissue uptake at 4 h,"[1]; spleen, 4 h p.i., n = 4, read-out: Spleen uptake",0.19 ± 0.02 %ID/g
same,tissue uptake at 24 h,"[1]; spleen, 24 h p.i., n = 4, read-out: Spleen uptake",0.52 ± 0.09 %ID/g
same,tissue uptake at 48 h,"[1]; spleen, 48 h p.i., n = 6, read-out: Spleen uptake",0.43 ± 0.08 %ID/g
same,tissue uptake at 4 h,"[1]; stomach, 4 h p.i., n = 4, read-out: Stomach uptake",8.73 ± 0.66 %ID/g
same,tissue uptake at 24 h,"[1]; stomach, 24 h p.i., n = 4, read-out: Stomach uptake",5.94 ± 0.9 %ID/g
same,tissue uptake at 48 h,"[1]; stomach, 48 h p.i., n = 6, read-out: Stomach uptake",2.78 ± 0.79 %ID/g
same,excreta dose per gram or mL at 4 h,"[1]; urine, 4 h p.i., n = 4",15.3 ± 1.2 %ID/g
same,excreta dose per gram or mL at 24 h,"[1]; urine, 24 h p.i., n = 4",4.81 ± 0.84 %ID/g
same,excreta dose per gram or mL at 48 h,"[1]; urine, 48 h p.i., n = 5",2.04 ± 0.97 %ID/g
same,Reduction of uptake in the αvβ6 (+) tumors by blocking,[2],87–91%
same,excreta dose per gram or mL at 4 h,"[3]; faeces, 4 h, read-out: Fecal matter",12 %ID/g
same,excreta dose per gram or mL at 48 h,"[3]; faeces, 48 h, read-out: Fecal matter",1.5 %ID/g
same,tissue uptake at 4 h,"[3]; kidney, 4 h, both models, read-out: Kidney uptake",50 to 64 %ID/g
same,tissue uptake at 48 h,"[3]; kidney, 48 h, both models, read-out: Kidney uptake",≤ 25 %ID/g
same,tissue uptake at 4 h,"[3]; large intestines, 4 h, read-out: Large intestines uptake",6 %ID/g
same,tissue uptake at 48 h,"[3]; large intestines, 48 h, read-out: Large intestines uptake",3 %ID/g
same,tissue uptake,"[3]; muscle, read-out: Muscle uptake",≤ 0.9 %ID/g
same,tissue uptake,"[3]; pancreas, read-out: Pancreas uptake",≤ 0.5 %ID/g
same,tissue uptake at 4 h,"[3]; small intestines, 4 h, read-out: Small intestines uptake",4 to 5 %ID/g
same,tissue uptake at 4 h,"[3]; stomach, 4 h, read-out: Stomach uptake",9 %ID/g
